Assay results taken from publication PMC6358683 (Proceedings of the National Academy of Sciences of the …, 2019).

Legend:
[1] = target: HA of A/Thailand/CU44/2006 (Influenza A virus A/Thailand/CU44/2006 …, UniProt A7LI25, strain); experiment: ELISA
[2] = target: HA of A/Solomon Islands/03/2006 (Influenza A virus A/Solomon …, UniProt A7Y8I1, strain); experiment: ELISA

B1: C05 V110P (antibody, V domains shown)
VH: QVQLQESGGGLVQPGESLRLSCVGSGSSFGESTLSYYAVSWVRQAPGKGLEWLSIINAGGGDIDYADSVEGRFTISRDNSKETLYLQMTNLRVEDTGVYYCAKHMSMQQVPSAGWERADLVGDAFDVWGQGTMVTVSS
VL: DIQLTQSPSSLSASVGDRVTLTCQASQDIRKFLNWYQQKPGKGPKLLIYDASNLQRGVPSRFSGGGSGTDFTLIISSLQPEDVGTYYCQQYDGLPFTFGGGTKVVIK
binding result [1]: binds | binding result [2]: binds

B2: C05 A117E (antibody, V domains shown)
VH: QVQLQESGGGLVQPGESLRLSCVGSGSSFGESTLSYYAVSWVRQAPGKGLEWLSIINAGGGDIDYADSVEGRFTISRDNSKETLYLQMTNLRVEDTGVYYCAKHMSMQQVVSAGWEREDLVGDAFDVWGQGTMVTVSS
VL: DIQLTQSPSSLSASVGDRVTLTCQASQDIRKFLNWYQQKPGKGPKLLIYDASNLQRGVPSRFSGGGSGTDFTLIISSLQPEDVGTYYCQQYDGLPFTFGGGTKVVIK
binding result [1]: binds | binding result [2]: binds

B3: C05 V110P-A117E (antibody, V domains shown)
VH: QVQLQESGGGLVQPGESLRLSCVGSGSSFGESTLSYYAVSWVRQAPGKGLEWLSIINAGGGDIDYADSVEGRFTISRDNSKETLYLQMTNLRVEDTGVYYCAKHMSMQQVPSAGWEREDLVGDAFDVWGQGTMVTVSS
VL: DIQLTQSPSSLSASVGDRVTLTCQASQDIRKFLNWYQQKPGKGPKLLIYDASNLQRGVPSRFSGGGSGTDFTLIISSLQPEDVGTYYCQQYDGLPFTFGGGTKVVIK
binding result [1]: binds | binding result [2]: binds
